The values that follow come from patent publication CN117567617A.

In this assay the target is 人CLDN18.2 (human claudin18.2) (human) (UniProt P56856). The assay can be described thus: cell-based or functional assay.

B1: 全人源抗CLDN18.2抗体2A2 (CLDN-BC-2A2-hH1) (antibody, V domains shown)
VH: QVQLQQWGPGLVKPSQTLSLTCTVSGGSISSVGYYWSWIRQHPGQGLEWVGYIYYSGGTYYNPSLKSRVTISLDTSKNQFSLKLTSVTAADTAVYYCASYGSVSPYYYYYGMDVWGQGTTVTVSS
VL: DIVMTQSPSSVSASVGDRVTITCRASQGISSWLAWYQQKPGKAPNLLISAASSLQSGVPSRFSGNGSGTDFTLTISSLQPEDFASYYCQQANSFPITFGQGTRLEIK
The molecule B1 registered a CDC活性 EC50 (Presto Blue, complement) of 10.9 µg/mL.
